In publication PMC7255614 one finds Kd, koff and kon data, which are given here for two substances.

In assay [1] the target is fibronectin (UniProt P02751). As to the kind of experiment: SPR; Biacore 3000; fibronectin on a CM5 chip; 0-500 nM untagged OspC variants injected at 10 μl/min, 25°C; 1:1 Langmuir model; KD from the average koff divided by kon of each run. (In general: SPR reads the build-up and loss of mass on a sensor chip optically.)
The target of assay [2] is fibronectin (UniProt P02751). As to the kind of experiment: ELISA; wells coated with 10 μg/ml purified fibronectin in 0.05 M Na2CO3 pH 9.0; 0.03125-2 μM GST or GST-tagged OspC variants, 1 hr at ambient temperature; goat anti-GST and HRP-conjugated anti-goat IgG; estimated KD from a fit of OD405.

In general, Kd refers to the concentration at which binding is half-saturated. As a reminder, the koff is the rate constant with which the complex falls apart. A low value points to slow dissociation. What is called kon is a measure of how fast the partners come together. Low readings indicate slower complex formation, high ones faster complex formation.

fibronectin, sequence (P02751 32-2477): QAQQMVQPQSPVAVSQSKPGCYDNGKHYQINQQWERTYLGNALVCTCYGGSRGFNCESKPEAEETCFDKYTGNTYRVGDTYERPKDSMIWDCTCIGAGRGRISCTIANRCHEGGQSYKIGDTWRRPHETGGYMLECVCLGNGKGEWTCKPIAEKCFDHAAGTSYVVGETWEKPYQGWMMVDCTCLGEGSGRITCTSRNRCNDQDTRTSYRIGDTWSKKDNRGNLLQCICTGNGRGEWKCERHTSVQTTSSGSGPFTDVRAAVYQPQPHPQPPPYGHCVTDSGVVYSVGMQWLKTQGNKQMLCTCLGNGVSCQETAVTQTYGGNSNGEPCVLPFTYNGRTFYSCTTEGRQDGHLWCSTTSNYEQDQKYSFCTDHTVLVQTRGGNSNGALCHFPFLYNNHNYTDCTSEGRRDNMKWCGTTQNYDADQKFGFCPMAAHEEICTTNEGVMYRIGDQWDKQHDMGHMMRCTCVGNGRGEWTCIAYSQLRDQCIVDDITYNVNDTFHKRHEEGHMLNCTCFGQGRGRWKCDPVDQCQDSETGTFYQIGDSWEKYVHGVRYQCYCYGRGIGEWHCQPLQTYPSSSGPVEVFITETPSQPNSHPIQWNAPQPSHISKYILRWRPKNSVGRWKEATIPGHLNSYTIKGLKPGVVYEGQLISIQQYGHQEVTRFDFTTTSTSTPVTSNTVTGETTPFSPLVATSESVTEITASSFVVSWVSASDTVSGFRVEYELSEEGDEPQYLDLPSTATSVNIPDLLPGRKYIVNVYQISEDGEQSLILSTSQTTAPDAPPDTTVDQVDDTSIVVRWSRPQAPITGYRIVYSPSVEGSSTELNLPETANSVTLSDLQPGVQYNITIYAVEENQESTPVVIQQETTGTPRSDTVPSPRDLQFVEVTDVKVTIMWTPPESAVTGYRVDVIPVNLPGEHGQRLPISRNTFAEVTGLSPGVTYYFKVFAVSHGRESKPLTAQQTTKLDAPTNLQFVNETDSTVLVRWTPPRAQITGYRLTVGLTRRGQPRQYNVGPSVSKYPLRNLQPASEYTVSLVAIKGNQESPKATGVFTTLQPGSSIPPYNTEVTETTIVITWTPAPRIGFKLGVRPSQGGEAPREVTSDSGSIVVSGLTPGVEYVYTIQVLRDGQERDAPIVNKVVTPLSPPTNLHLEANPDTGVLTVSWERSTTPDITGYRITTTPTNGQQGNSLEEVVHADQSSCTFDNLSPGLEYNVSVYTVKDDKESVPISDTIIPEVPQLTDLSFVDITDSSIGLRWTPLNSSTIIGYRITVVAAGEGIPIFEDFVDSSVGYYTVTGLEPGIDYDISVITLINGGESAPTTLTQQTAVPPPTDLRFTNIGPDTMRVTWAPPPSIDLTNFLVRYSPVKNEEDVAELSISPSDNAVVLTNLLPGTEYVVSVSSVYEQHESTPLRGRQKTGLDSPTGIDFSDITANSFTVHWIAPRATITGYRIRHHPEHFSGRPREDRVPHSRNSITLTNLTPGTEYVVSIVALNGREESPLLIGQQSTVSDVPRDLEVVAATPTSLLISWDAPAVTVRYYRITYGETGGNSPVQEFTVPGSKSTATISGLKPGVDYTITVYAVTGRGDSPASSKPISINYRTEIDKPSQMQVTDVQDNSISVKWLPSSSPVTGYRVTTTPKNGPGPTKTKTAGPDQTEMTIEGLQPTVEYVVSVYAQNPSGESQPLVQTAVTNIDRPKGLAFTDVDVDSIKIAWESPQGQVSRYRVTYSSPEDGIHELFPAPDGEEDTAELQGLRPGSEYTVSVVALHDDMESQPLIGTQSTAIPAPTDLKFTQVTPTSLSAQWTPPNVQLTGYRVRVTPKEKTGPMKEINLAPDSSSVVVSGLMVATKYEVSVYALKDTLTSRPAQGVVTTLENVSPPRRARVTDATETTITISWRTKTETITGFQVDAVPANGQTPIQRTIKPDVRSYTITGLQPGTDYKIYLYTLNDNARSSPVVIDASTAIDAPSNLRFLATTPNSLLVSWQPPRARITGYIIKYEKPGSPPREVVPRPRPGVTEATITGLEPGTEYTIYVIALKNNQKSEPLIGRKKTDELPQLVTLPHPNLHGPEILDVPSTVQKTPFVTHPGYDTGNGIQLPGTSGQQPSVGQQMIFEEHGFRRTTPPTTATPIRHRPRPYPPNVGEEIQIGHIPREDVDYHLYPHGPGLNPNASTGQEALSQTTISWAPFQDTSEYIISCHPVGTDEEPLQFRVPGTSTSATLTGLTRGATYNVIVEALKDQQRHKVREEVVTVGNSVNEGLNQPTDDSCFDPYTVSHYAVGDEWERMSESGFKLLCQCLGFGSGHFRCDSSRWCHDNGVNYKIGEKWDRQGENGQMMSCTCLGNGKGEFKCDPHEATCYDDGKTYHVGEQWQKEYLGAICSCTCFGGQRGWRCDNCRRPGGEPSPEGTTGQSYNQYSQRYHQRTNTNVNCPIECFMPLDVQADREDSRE

In assay [1], OspC297, untagged (natural protein) gave a Kd of 1750 nM, a koff of 0.06 s⁻¹ and a kon of 36800 M⁻¹ s⁻¹.

Regarding “GST-OspC_(N40-D10/E9) (natural protein; other documents disagree on this pair)”, the Kd in assay [2] is 350 nM.
